The target of assay [1] is T1, LRP1 CR3-5 (human).
T1 construct: range 852-973; Amplified from human cDNA; also called L1 CR3-5
The assay can be described thus: solid-phase assay, coated CR protein, anti-RAP, OD450. On the procedure:
(§1) Percent of maximum binding is the ratio of the OD at the highest concentration tested for each ligand and the highest OD measured for all such ligands at that concentration.
(§2) Solid phase binding assays-Purified, refolded CR protein (1 μg) was bound to Nunc Maxisorp™ 96-well plates in TBS pH 8 supplemented with 5 mM CaCl₂ (TBSC) overnight at 4° C. Wells were washed with TBSC and then blocked with TBSC containing 2% bovine serum albumin (BSA). RAP ligands were then incubated with the immobilized receptor at a range of concentrations for 2 hours in the above blocking buffer supplemented with 0.05% Tween-20 at room temperature. Control wells contained no added ligand. As an additional control, to determine whether the absence of calcium affected binding, 10 mM EGTA was included in the incubation medium for some samples. Wells were washed with TBSTC and bound ligands detected with polyclonal anti-RAP (BP41/42, 1:1,000, BioMarin). Excess primary antibody was removed and wells washed before incubation with the secondary antibody, HRP-conjugated goat anti rabbit IgG (Bio-Rad). After washing, TMB substrate solutions (Bio-Rad) were added to detect HRP. Color development was stopped with 1N HCl. Absorption at 450 nm was measured with a microplate spectrophotometer (Molecular Devices). Data were plotted and Kd values derived by non-linear regression with the assumption of single-site binding (GraphPad Prism).
(§3) Next, binding of RAP d3 and RAPv2A d3 proteins to LRP1 CR3-5 and LRP2 CR89 was assessed. In order to understand the relative contributions of each RAPv2A d3 mutation to differences in affinity, we also prepared a number of RAPv2A d3 revertants and RAP d3 forward mutants, all comprising sequence variants intermediate between RAPv2A d3 and wild-type RAP d3 (FIGS. 7A and B, Table 1). Samples were tested in triplicate and experiments were repeated at least once. Values from different experiments were combined and a single mean and standard deviation obtained for each concentration of ligand tested.

A further assay addresses T2, LRP2 CR89 (human, UniProt P98164 1025-1102).
T2 construct: domain: CR8 and CR9; also called YVWR; L2 CR89; not shown: N-terminal hexahistidine and S-peptide from pET30(+)a
Described as above. The method, then: as §1, §2, §3

In assay [2] the target is T3, LRP2 CR89 V1047D (human, UniProt P98164 1022-1105).
T3 construct: also called YDWR
T3 chain: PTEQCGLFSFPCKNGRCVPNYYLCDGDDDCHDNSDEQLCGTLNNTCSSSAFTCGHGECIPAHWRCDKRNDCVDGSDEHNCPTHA
The assay is described as above. The method, then: as §2
(§4) One premise of this work was that amino acids at A, C, A′ and C′ within the calcium-binding loops of a CR pair were key determinants of binding affinity for RAP and would be similarly important for binding of RAP variants. To test this idea, we prepared mutants of LRP2 CR89 in which the native, non-canonical residues at these positions were sequentially substituted with the non-native, canonical residues. As defined above, the A, C, A′, C′ string for LRP2 CR89 is YVWR. Mutants included LRP2 CR89 Y1042W (WVWR), LRP2 CR89 V1047D (YDWR), LRP2 CR89 R1088D (YVWD), LRP2 CR89 V1047D R1088D (YDWD), LRP2 CR89 Y1042W V1047D R1088D (WDWD), LRP2 CR89 Y1042W V1047D (WDWR), LRP2 CR89 Y1042W R1088D (WVWD). Binding to both RAP d3 and RAPv2A d3 were measured for each LRP2 CR89 mutant by solid-phase assay. Samples were tested in triplicate. OD values from uncoated wells, receptor-coated wells incubated with buffer alone, and uncoated wells incubated with the highest ligand concentration all gave similar values for all conditions tested.

For another assay, the target named is T4, LRP2 CR89 Y1042W R1088D (human, UniProt P98164 1022-1105).
T4 construct: also called WVWD
T4 chain: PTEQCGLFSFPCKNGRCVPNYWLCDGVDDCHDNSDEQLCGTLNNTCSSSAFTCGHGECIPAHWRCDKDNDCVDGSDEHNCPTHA
Described as above. The method, then: as §2, §4

Assay [3] concerns the target T5, LRP2 CR89 Y1042W V1047D R1088D (human, UniProt P98164 1022-1105).
T5 construct: also called WDWD
T5 chain: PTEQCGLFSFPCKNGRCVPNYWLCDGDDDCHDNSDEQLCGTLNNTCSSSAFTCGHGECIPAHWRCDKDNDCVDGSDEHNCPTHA
The assay is described as above. On the procedure:
as §2, §4

Assay [4] concerns the target T1, LRP1 CR3-5. Kind of assay: solid-phase assay, coated CR protein, anti-RAP, OD450; apparent Kd repeated from Table 1; unit inferred, nM taken from paragraph 284.
For a further assay, the target named is T6, LRP2 CR89 R1088D (human, UniProt P98164 1022-1105).
T6 construct: also called YVWD
Kind of assay: solid-phase binding assay: CR protein coated on the plate, ligand titrated, anti-RAP polyclonal and HRP secondary, OD 450 nm. The method, then:
as §2, §4

In the next assay the target is T7, LRP2 CR89 V1047D R1088D (human, UniProt P98164 1022-1105).
T7 construct: also called YDWD
T7 chain: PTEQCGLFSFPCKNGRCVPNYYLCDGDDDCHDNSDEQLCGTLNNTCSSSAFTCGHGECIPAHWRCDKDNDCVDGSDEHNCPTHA
The assay is described as above. The method, then: as §2, §4

In assay [5] the target is T3, LRP2 CR89 V1047D. Described as above. On the procedure: as §2, §4
Another assay addresses T8, LRP2 CR89 Y1042W (human, UniProt P98164 1022-1105).
T8 construct: also called WVWR
T8 chain: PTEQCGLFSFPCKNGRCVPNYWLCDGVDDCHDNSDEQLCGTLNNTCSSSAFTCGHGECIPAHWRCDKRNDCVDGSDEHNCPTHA
The assay is described as above. The method, then: as §2, §4

T1 sequence (Q07954 852-973): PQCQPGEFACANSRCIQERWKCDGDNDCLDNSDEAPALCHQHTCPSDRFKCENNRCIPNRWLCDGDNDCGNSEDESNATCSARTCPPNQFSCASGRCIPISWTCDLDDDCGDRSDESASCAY
T2 sequence (P98164 1025-1102): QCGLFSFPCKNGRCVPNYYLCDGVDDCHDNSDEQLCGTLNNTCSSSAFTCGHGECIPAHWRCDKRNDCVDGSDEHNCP

B1: wild-type RAP d3 (ligand)
chain: LDRLRRVSHQGYSTEAEFEEPRVIDLWDLEQSANLTDKELEAFREELKHFEAKIEKHNHYQKQLEIAHEKLRHAESVGDGERVSRSREKHALLEGRTKELGYTVKKHLQDLSGRISRAR
notes: expressed in E. coli from pET30(+)a; not shown: vector-encoded N-terminal tags of pET30(+)a (hexahistidine and S-peptide, as stated for the CR constructs)
For B1, the “% max (percent of maximum binding)” value with LRP1 CR3-5 [1] was determined as 76%; with LRP2 CR89, 5%. The Kd with LRP1 CR3-5 [1] and in the assay with LRP1 CR3-5 [4] was 16 nM throughout. Besides, the “% max bind” value came out at 6% with LRP2 CR89 V1047D [2], 16% in the assay with LRP2 CR89 Y1042W R1088D and 15% in assay [3]. In addition, the binding result with LRP2 CR89 R1088D, with LRP2 CR89 V1047D R1088D, in the assay with LRP2 CR89 V1047D [5] and in the assay with LRP2 CR89 Y1042W was “no binding (tested: 100 nM)” each time.

Values taken from patent US20090269346A1 (RAPTOR PHARMACEUTICAL, published 2009).
